Laboratory results: patent publication US20220041738A1 (SAITAMA MEDICAL UNIVERSITY, published 2022)
Where a chain is given by its changes, count along the chain named.

Legend:
Experiment in all cases: immunofluorescence on transfected, formalin-fixed C2C12 cells, IgG at 10 µg/mL, Alexa 594 anti-rat IgG
[1] = molecular target: T1, human ALK2-R202I on cells (human, UniProt Q04771 21-509)
T1 sequence: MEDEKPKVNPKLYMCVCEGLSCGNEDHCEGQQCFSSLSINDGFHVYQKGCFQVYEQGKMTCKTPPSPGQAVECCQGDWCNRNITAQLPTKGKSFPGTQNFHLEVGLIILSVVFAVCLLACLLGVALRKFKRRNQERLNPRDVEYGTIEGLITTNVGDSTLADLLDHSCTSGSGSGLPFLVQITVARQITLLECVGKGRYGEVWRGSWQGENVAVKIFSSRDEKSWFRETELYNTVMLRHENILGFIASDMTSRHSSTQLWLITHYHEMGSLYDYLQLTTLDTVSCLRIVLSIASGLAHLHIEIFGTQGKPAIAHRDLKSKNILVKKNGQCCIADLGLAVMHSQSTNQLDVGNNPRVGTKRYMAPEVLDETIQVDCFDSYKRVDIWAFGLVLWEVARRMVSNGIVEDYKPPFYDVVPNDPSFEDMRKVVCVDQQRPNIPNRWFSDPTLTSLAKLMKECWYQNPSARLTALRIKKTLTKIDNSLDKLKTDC
Procedure: (§1) Mouse C2C12 cells were seeded into a 96-well plate (Greiner Bio-One) at 0.5×10³ cells/well, and cultured in 15% FBS-containing DMEM medium overnight under the conditions of 5% CO₂ at 37° C. On the following day, the C2C12 cells were transfected with each of a wild-type human ALK2 cDNA integrated into pcDEF3; pcDEF3/human ALK2-L196P, pcDEF3/human ALK2-P197_F198delinsL, pcDEF3/human ALK2-R202I, pcDEF3/human ALK2-R206H, pcDEF3/human ALK2-Q207E, pcDEF3/human ALK2-R258S, pcDEF3/human ALK2-G325A, pcDEF3/human ALK2-G328E, pcDEF3/human ALK2-G328R, pcDEF3/human ALK2-G328W, pcDEF3/human ALK2-G356D, and pcDEF3/human ALK2-R375P, which are variants identified in FOP; and pcDEF3 as a control, using Lipofectamine 2000 (Invitrogen), and further cultured overnight.
(§2) The C2C12 cells were fixed with 10% neutral formalin (Nacalai Tesque, Japan) for 20 minutes at room temperature, and then blocked with 10% goat normal serum for 30 minutes. After the blocking agent was removed, purified IgG diluted to 10 μg/mL with the blocking agent was added, and the cells were left for 1 hour at room temperature. After the cells were washed with PBS three times, Goat Alexa 594-conjugated anti-rat IgG (Invitrogen) diluted to 1:1000 with the blocking agent was added, and the cells were left for 1 hour at room temperature. After the cells were washed with PBS three times, the cells were fixed with 10% neutral formalin for 15 minutes at room temperature, and nuclear-stained with DAPI (LifeTechnologies). Fluorescent signals were analyzed with a fluorescence microscope BZ-9000 (Keyence).

[2] = molecular target: T2, human ALK2-G328E on cells (human, UniProt Q04771 21-509)
T2 sequence: T1 sequence with I182R, G308E
Procedure: as §1, §2

[3] = molecular target: T3, human ALK2-G328W on cells (human, UniProt Q04771 21-509)
T3 sequence: T1 sequence with I182R, G308W
Procedure: as §1, §2

[4] = molecular target: T4, human ALK2-G356D on cells (human, UniProt Q04771 21-509)
T4 sequence: T1 sequence with I182R, G336D
Procedure: as §1, §2

Measured: binding result

B1: rat anti-ALK2 monoclonal antibody A2-25C (antibody, V domains shown)
VH: EVQLVESGGGLVQPGGSLKLSCAASGFTFSYYAMSWVCQAPTKGLEWVASISRGGDNTYYRDTVKGRFTTSRDNAKNTLYLQMDSLRSEDTATYYCARLNYNNYFDYWGQGVMVTVSS
VL: DIQMTQSPASLSASLEEIVTITCQASQDIGNWLSWYQQKPGKSPQLLIYGATSLADGVPSRFSGSRSGTQYSLKISRLRVEDIGIYYCLQAYSAPFTFGSGTKLEIKR
notes: Rat monoclonal IgG from a hybridoma; also called 25C11
binds: all assays above

B2: rat anti-ALK2 monoclonal antibody A2-27D (antibody, V domains shown)
VH: EVQLVESGGGLVQPGRSLKLSCLASGSTFSNYGMKWIRQAPGKGLEWVASISRSSTYIYYADTVKGRFTISRDNARNTLYLQMTSLRSEDTALYYCAAAISTPFYWYFDFWGPGTVVTVSS
VL: EIVLTQSPTTMAASPGEKVTLNCLASSSVSYMTWYQQKSGASPKLWIYGTSNLASGVPNRFSGSGSGTSYSLAISSMEAEDVATYYCLHLTSYPPYTFGAGTKLELKR
notes: Rat monoclonal IgG from a hybridoma; also called 27D11
binds: all assays above
